The values that follow come from publication PMC10501992, “How Pol α-primase is targeted to replisomes to prime eukaryotic DNA replication” (Molecular Cell, 2023).

Assay in all cases: cryo-EM structure; human replisome: 150 nM CMG on fork DNA (60 nt or 15 nt 5′ flap) with 1.5-fold molar excess of AND-1, TIMELESS-TIPIN, CLASPIN and Pol α-primase; 25 mM HEPES-NaOH pH 7.6, 150 mM NaOAc, 0.5 mM TCEP, 500 μM AMP-PNP, 10 mM Mg(OAc)2, on ice; 10-30% glycerol gradient with glutaraldehyde and BS3 cross-linkers
Data set [1] concerns the target T1, human CMG (CDC45-MCM-GINS) replicative helicase (human, UniProt O75419 1-566; P49736 1-904; P25205 1-808; P33991 1-863; P33992 1-734; Q14566 …).
T1 construct: CDC45, human; MCM2, human; MCM3, human; MCM4, human; MCM5, human; MCM6, human; MCM7, human; PSF1, subunit of GINS, human; PSF2, subunit of GINS, human; PSF3, subunit of GINS, human; SLD5, subunit of GINS, human; the subunits are named in the methods for the MCM3-4A form, which was made as the wild type; copies: + + + + + + + + + +
The following applies: both partners purified.

Data set [2] has as its target T2, POLA1 (human Pol α catalytic subunit) (human, UniProt P09884 1-1462).
T2 construct: POLA1, human; modelled residues 1279-1445 and 1448-1458 (CTD); stood in the assay as a subunit of m18; also called POLA1CTD; POLA1_(exo-cat)
T2 sequence: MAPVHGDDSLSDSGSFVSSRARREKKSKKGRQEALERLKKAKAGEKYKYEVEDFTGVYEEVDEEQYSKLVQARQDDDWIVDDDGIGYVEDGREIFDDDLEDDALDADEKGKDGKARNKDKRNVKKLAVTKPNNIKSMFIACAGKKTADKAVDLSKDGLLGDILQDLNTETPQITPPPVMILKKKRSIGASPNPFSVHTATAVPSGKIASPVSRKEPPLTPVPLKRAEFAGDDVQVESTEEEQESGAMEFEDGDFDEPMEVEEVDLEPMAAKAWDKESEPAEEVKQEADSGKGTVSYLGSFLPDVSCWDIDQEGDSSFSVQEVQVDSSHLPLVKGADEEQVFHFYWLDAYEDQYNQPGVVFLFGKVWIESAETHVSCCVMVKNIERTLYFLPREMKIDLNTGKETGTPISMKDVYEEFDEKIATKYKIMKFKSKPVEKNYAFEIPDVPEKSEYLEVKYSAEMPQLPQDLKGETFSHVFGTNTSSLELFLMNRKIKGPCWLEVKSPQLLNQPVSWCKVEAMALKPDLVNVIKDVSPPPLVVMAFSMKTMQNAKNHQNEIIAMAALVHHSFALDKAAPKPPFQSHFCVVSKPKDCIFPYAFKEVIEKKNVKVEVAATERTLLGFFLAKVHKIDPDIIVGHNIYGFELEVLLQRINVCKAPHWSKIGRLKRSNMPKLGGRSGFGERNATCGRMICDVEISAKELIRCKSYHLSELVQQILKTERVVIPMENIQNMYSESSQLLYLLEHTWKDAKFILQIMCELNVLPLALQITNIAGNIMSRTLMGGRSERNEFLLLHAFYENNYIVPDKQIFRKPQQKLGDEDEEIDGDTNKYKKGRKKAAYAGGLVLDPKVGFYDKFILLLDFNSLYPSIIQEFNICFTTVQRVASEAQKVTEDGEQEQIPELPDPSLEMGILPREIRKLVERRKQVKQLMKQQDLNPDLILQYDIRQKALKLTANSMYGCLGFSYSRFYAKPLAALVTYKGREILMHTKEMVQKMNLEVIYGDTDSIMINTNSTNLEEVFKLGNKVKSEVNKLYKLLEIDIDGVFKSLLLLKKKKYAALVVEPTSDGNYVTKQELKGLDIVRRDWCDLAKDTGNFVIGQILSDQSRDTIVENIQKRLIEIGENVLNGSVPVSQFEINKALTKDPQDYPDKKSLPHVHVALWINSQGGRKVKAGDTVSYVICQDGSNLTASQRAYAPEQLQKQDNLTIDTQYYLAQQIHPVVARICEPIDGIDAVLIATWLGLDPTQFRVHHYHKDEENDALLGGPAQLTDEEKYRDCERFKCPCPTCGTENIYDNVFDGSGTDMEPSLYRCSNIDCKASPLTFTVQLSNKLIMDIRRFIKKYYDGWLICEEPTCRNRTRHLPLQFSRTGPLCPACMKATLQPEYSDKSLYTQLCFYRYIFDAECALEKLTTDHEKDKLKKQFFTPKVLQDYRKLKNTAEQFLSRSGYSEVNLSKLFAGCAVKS
The conditions noted are these: both partners purified.

Data set [3] concerns the molecule itself.
Data set [4] concerns the target T3, POLA2 (human Pol α accessory subunit) (human, UniProt Q14181 1-598).
T3 construct: POLA2, human; stood in the assay as a subunit of m18
T3 sequence: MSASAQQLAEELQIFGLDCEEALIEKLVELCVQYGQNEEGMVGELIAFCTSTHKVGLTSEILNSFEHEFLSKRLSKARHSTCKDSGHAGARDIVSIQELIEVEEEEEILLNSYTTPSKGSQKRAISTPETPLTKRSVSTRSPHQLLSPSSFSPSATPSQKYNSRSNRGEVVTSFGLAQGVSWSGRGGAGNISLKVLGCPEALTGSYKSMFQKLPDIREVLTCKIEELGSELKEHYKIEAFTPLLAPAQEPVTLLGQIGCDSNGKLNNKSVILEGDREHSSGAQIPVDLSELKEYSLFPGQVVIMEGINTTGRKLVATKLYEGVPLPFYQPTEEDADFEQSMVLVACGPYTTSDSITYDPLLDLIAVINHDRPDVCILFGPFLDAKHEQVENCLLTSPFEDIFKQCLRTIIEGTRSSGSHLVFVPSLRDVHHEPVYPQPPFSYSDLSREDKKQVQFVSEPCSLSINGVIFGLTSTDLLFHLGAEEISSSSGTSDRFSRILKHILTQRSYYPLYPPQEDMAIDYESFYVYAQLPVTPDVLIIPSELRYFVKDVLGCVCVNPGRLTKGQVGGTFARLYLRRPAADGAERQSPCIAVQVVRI
The following applies: both partners purified.

B1: AND-1 (human) (natural protein)
chain: MPATRKPMRYGHTEGHTEVCFDDSGSFIVTCGSDGDVRIWEDLDDDDPKFINVGEKAYSCALKSGKLVTAVSNNTIQVHTFPEGVPDGILTRFTTNANHVVFNGDGTKIAAGSSDFLVKIVDVMDSSQQKTFRGHDAPVLSLSFDPKDIFLASASCDGSVRVWQISDQTCAISWPLLQKCNDVINAKSICRLAWQPKSGKLLAIPVEKSVKLYRRESWSHQFDLSDNFISQTLNIVTWSPCGQYLAAGSINGLIIVWNVETKDCMERVKHEKGYAICGLAWHPTCGRISYTDAEGNLGLLENVCDPSGKTSSSKVSSRVEKDYNDLFDGDDMSNAGDFLNDNAVEIPSFSKGIINDDEDDEDLMMASGRPRQRSHILEDDENSVDISMLKTGSSLLKEEEEDGQEGSIHNLPLVTSQRPFYDGPMPTPRQKPFQSGSTPLHLTHRFMVWNSIGIIRCYNDEQDNAIDVEFHDTSIHHATHLSNTLNYTIADLSHEAILLACESTDELASKLHCLHFSSWDSSKEWIIDLPQNEDIEAICLGQGWAAAATSALLLRLFTIGGVQKEVFSLAGPVVSMAGHGEQLFIVYHRGTGFDGDQCLGVQLLELGKKKKQILHGDPLPLTRKSYLAWIGFSAEGTPCYVDSEGIVRMLNRGLGNTWTPICNTREHCKGKSDHYWVVGIHENPQQLRCIPCKGSRFPPTLPRPAVAILSFKLPYCQIATEKGQMEEQFWRSVIFHNHLDYLAKNGYEYEESTKNQATKEQQELLMKMLALSCKLEREFRCVELADLMTQNAVNLAIKYASRSRKLILAQKLSELAVEKAAELTATQVEEEEEEEDFRKKLNAGYSNTATEWSQPRFRNQVEEDAEDSGEADDEEKPEIHKPGQNSFSKSTNSSDVSAKSGAVTFSSQGRVNPFKVSASSKEPAMSMNSARSTNILDNMGKSSKKSTALSRTTNNEKSPIIKPLIPKPKPKQASAASYFQKRNSQTNKTEEVKEENLKNVLSETPAICPPQNTENQRPKTGFQMWLEENRSNILSDNPDFSDEADIIKEGMIRFRVLSTEERKVWANKAKGETASEGTEAKKRKRVVDESDETENQEEKAKENLNLSKKQKPLDFSTNQKLSAFAFKQE
notes: AND-1, human (Ctf4 in budding yeast)
Usually stoichiometry N stands for the number of molecules, sites or subunits per partner or assembly. For B1, the binding result in data set [1] and in data set [2] was “binds” in each case. Moreover, in data set [3], the “stoichiometry N” value came to 3.

B2: PSF1 (human GINS subunit) (natural protein)
chain: MFCEKAMELIRELHRAPEGQLPAFNEDGLRQVLEEMKALYEQNQSDVNEAKSGGRSDLIPTIKFRHCSLLRNRRCTVAYLYDRLLRIRALRWEYGSVLPNALRFHMAAEEMEWFNNYKRSLATYMRSLGGDEGLDITQDMKPPKSLYIEVRCLKDYGEFEVDDGTSVLLKKNSQHFLPRWKCEQLIRQGVLEHILS
notes: PSF1, subunit of GINS, human; stood in the assay as a subunit of m19
In the case of B2, the binding result in data set [4] is given as “binds”.
